According to patent US20210015937A1 (CRESCENDO BIOLOGICS, published 2021):
Where “and” joins values, the source holds several entries; their conditions need not be identical. Identical values can stand only once.

Legend:
[1] = target: T1, human LAG-3 expressed on cells (human, UniProt P18627 23-525); experiment: cell-based or functional assay
T1 sequence: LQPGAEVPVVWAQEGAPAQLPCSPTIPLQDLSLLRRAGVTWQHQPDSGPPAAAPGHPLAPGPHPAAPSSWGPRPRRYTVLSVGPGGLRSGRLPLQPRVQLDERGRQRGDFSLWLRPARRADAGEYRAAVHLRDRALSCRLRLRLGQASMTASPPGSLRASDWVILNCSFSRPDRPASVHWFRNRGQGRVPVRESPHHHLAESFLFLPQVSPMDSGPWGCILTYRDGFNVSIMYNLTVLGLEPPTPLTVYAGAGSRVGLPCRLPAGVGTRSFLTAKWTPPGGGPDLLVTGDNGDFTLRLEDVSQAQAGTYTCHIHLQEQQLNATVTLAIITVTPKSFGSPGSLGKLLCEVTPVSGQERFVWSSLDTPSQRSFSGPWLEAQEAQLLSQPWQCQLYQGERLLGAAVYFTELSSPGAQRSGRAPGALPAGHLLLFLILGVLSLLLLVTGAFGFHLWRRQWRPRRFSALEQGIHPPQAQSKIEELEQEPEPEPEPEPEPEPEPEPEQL

mouse LAG-3 = target: T2, mouse LAG-3 (mouse, UniProt Q61790 24-442); experiment: ELISA, coated antigen, anti-HIS HRP detection
T2 construct: The construct is not described; also called mouse LAG-3 (Sino Biological cat no 53069-M02H); Mouse LAG3 (R&D Biotechne cat 3328-L3)
T2 sequence (looked up): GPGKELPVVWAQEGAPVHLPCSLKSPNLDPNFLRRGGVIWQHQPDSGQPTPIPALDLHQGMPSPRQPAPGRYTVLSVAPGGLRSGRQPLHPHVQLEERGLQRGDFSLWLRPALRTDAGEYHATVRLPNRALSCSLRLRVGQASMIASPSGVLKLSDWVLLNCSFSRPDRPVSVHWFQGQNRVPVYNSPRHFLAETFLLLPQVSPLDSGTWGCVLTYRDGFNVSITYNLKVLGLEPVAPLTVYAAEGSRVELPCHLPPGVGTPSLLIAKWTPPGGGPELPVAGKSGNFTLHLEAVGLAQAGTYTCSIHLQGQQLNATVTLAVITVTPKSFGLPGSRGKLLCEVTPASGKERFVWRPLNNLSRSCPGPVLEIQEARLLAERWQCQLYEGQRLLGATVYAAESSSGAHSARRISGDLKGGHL
Experimental: (§1) To screen specificity by ELISA, antigens were coated at 1-5 ug/ml and blocked with Marvel milk powder. VH were added at 10 μg/ml and incubated for 1 hour. After washing, HRP-conjugated anti-HIS antibody (Miltenyi cat no. 130-092-785) was added. TMB substrate and acidic solution were used to develop colorimetric signal.

CD4 [2] = target: T3, CD4 (UniProt P01730 26-390); experiment: ELISA, coated antigen, anti-HIS HRP detection
T3 construct: also called CD4 (R&D Biotechne 514-CD)
Experimental: as §1

[3] = target: T4, Rhesus monkey LAG-3 (used as cynomolgus LAG-3) (Rhesus monkey (called cynomolgus in the …)); experiment: BLI (Octet); cynomolgus LAG-3 immobilised on ARG2 sensors, 1:1 fit
T4 construct: extracellular domain
Experimental: (§2) Binding kinetics for multi-valent and bispecific VH were also measured in real-time bio-layer interferometer based biosensor Octet (ForteBio). […] All the binding studies were performed in HBS-ET Octet kinetics buffer. Biosensors were washed in Octet kinetics buffer in between different steps. […] The contact time for each of the association steps was 150 seconds and the dissociation step was 400 seconds. […] To compare the constructs, kinetic association (kₐ) and dissociation (kd) rate constants were determined by processing and fitting the data to a 1:1 binding model using ForteBio Analysis software.

[4] = target: T4, Rhesus monkey LAG-3 (used as cynomolgus …); experiment: ELISA, coated antigen, VH at 10 µg/ml, anti-HIS HRP
Experimental: as §1

[5] = target: T5, recombinant human LAG-3-Fc (human, UniProt P18627 23-450); experiment: as above
T5 construct: also called human LAG-3 (R&D Systems cat no. 2319-L3); LAG3 antigen
T5 sequence: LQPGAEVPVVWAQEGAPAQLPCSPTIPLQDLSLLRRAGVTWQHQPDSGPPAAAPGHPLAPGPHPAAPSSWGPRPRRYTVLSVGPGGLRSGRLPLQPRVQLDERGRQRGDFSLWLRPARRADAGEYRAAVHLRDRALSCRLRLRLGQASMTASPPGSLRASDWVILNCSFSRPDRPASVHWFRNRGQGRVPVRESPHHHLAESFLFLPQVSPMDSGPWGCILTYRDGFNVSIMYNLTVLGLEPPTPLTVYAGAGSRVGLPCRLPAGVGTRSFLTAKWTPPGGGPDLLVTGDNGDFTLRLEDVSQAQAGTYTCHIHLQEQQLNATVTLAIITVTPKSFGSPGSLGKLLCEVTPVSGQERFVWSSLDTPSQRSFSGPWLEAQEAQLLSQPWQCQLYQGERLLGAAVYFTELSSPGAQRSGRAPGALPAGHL
Experimental: as §1

[6] = target: T6, human LAG-3 domains 1-2-Fc (human, UniProt P18627 23-261, limits assumed); experiment: as above
T6 construct: Domains were identified as per Huard et al 1997 PNAS 94:5744-9; also called truncated LAG-3
T6 sequence: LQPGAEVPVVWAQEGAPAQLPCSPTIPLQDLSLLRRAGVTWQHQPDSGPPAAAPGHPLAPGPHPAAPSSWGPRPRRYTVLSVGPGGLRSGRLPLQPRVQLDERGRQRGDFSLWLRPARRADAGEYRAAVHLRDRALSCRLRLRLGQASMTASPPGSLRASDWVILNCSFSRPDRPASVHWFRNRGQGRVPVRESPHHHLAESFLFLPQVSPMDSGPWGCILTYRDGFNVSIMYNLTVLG
Experimental: as §1

[7] = target: T1, human LAG-3 expressed on cells; experiment: FMAT (Mirrorball) binding to CHO human LAG-3 cells, anti-His detection
Text: Plates were read in the FL2 (502 nm-537 nm) and FL5 (677-800 nm) channels on the TTP Mirrorball plate reader following excitation at 488 nm and 640 nm. Data was gated on FL5 perimeter and peak intensity and the FL2 median mean fluorescence intensity of the gated data used for determination of VH binding.

[8] = target: T6, human LAG-3 domains 1-2-Fc; experiment: BLI (Octet); human LAG-3 domains 1-2-Fc captured on protein G biosensors, 1:1 fit
Experimental: as §2

[9] = target: T5, recombinant human LAG-3-Fc; experiment: competition ELISA; LAG-3-Fc pre-incubated with VH, binding to coated LSECtin
Text: (§3) The plate was blocked with 3% Marvel skimmed milk powder in PBS. […] Wash steps were done 3 times with PBS 0.05% Tween. Colour was developed using TMB and 0.5M sulphuric acid solution.

[10] = target: T5, recombinant human LAG-3-Fc; experiment: BLI (Octet); human LAG-3-Fc amine-coupled to biosensor, VH in solution, 1:1 fit
Experimental: Binding kinetics were measured in real-time bio-layer interferometer based biosensor Octet (ForteBio). […] All the binding studies were performed in HBS-ET Octet kinetics buffer. Biosensors were washed in Octet kinetics buffer in between different steps. A seven point, two-fold dilution series of each Humabody® VH was made with a top concentration of 1.6 μM. The contact time for each of the association steps was 150 seconds and the dissociation step was 300-400 seconds. Kinetic association (kₐ) and dissociation (kd) rate constants were determined by processing and fitting the data to a 1:1 binding model using ForteBio Analysis software.

[11] = target: T5, recombinant human LAG-3-Fc; experiment: competition ELISA; LAG-3-Fc pre-incubated with VH, binding to coated alpha-synuclein
Text: as §3

[12] = target: T5, recombinant human LAG-3-Fc; experiment: BLI (Octet); human LAG-3-Fc captured on protein G biosensors, 1:1 fit
Experimental: as §2

[13] = target: T5, recombinant human LAG-3-Fc; experiment: switchSENSE (Dynamic Biosensors); LAG3 alone on the surface, LAG3 channel
Experimental: (§4) The antigens were covalently attached to the biosensor surface using amine-coupling method, each antigen was linked to a different nanolever, with red or green fluorescent tag. Binding of a bispecific construct was measured to individual antigens alone or where both antigens were present on the surface simultaneously.

[14] = target: T7, human PD-1 expressed on cells (human, UniProt Q15116 25-288); experiment: cell-based or functional assay
[15] = target: T8, recombinant human PD-1 Fc chimera (human, UniProt Q15116 25-167); experiment: switchSENSE (Dynamic Biosensors); PD1 alone on the surface, PD1 channel
T8 construct: Bought Fc chimera; also called human PD-1 (R&D systems cat no. 1086-PD); PD1 antigen
Experimental: as §4

[16] = target: T5, recombinant human LAG-3-Fc; experiment: switchSENSE; LAG3 and PD1 both on the surface, LAG3 channel (avidity)
Experimental: as §4

[17] = target: T4, Rhesus monkey LAG-3 (used as cynomolgus …); experiment: BLI (Octet); LAG3 antigen amine-coupled to ARG2 sensors
[18] = target: T5, recombinant human LAG-3-Fc; experiment: as above
[19] = target: T5, recombinant human LAG-3-Fc; experiment: switchSENSE; LAG3 and PD1 both on the surface, LAG3 channel (avidity); LAG3 and PD1 as ligand antigens, LAG3 detection channel
Experimental: as §4

CD28 = CD28 (Homo sapiens (Human), UniProt P10747 19-152); experiment: BLI (Octet)
CD4 [20] = target: T3, CD4; experiment: BLI (Octet)
CTLA4 = CTLA4 (Homo sapiens (Human), UniProt P16410 36-161); experiment: BLI (Octet)
[21] = target: T7, human PD-1 expressed on cells; experiment: cell-based or functional assay; remark: listed apart in the source
[22] = target: human LAG-3 and human PD-1 co-expressed on the surface of cells (DiscoverX cell line) (human); experiment: cell-based or functional assay
[23] = target: T8, recombinant human PD-1 Fc chimera; experiment: switchSENSE; LAG3 and PD1 both on the surface, PD1 channel (avidity)
Experimental: as §4

[24] = target: T8, recombinant human PD-1 Fc chimera; experiment: BLI (Octet); PD1 antigen captured on Protein G sensors
Cynomolgus PD1 = Cynomolgus PD1 (cynomolgus, UniProt B0LAJ3 25-170); experiment: as above
Chain of Cynomolgus PD1 (B0LAJ3 entry or part of it limits assumed): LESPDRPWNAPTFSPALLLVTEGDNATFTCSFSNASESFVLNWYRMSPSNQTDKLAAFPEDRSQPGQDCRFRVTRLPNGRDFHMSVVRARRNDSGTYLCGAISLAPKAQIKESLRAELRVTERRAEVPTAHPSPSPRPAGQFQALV

T8 sequence (Q15116 25-167 limits assumed, change not shown): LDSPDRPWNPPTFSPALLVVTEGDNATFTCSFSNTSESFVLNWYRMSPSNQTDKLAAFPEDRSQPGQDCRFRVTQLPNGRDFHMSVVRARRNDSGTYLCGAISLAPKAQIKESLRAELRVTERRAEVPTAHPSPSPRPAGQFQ
Chain of human LAG-3 and human PD-1 co-expressed on the surface of cells (DiscoverX cell line) (human) (Q15116 25-288): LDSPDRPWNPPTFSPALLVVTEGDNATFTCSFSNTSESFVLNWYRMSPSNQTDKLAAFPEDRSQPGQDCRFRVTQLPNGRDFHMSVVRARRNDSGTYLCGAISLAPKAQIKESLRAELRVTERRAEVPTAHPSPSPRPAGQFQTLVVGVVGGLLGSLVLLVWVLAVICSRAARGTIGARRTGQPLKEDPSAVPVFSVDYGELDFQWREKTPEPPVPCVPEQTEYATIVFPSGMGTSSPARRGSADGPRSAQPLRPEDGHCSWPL
T7 sequence (Q15116 25-288 limits assumed): as the sequence (Q15116 25-288) above
Chain of CTLA4 (P16410 36-161 limits assumed): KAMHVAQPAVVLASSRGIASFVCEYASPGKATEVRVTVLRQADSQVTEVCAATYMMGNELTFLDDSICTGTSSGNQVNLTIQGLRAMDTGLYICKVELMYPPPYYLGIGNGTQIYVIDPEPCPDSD

B1: VH 1.1 (VHH)
VHH: EVQLVESGGGVVRPGGSLRLSCSASGFTFDDYGMSWVRQAPGKGLEWVSGIHWNGGNSGYADSVKGRFTISRDNAKNSLYLQMNSLRAEDTALYYCARIPREDCSSASCYTDAIDFWGPGTMVTVSS
notes: Human VH single domain antibody (Humabody) against LAG-3; also called VH single domain antibody 1.1; monovalent LAG-3 VH 1.1
EC50 (M), NFAT-Luciferase Reporter Gene assay (LAG-3:MHCII) [1]: > 3.3e-07 M | binding result (mouse LAG-3): no binding (tested: 10 µg/ml VH) | binding result (CD4 [2]): no binding (tested: 10 µg/ml VH) | Kd [3]: 25.6 nM | koff [3]: 0.000222 s⁻¹ | kon [3]: 8650 M⁻¹ s⁻¹ | ELISA signal over background [4]: > 10 fold over background | ELISA signal over background [5]: > 10 fold over background | ELISA signal over background [6]: > 10 fold over background | EC50 [7]: 1.8 nM | Kd [8]: 67.5 nM | koff [8]: 0.0011 s⁻¹ | kon [8]: 16200 M⁻¹ s⁻¹ | IC50 [9]: 210 nM | Kd [10]: 31.3 nM | koff [10]: 0.00089 s⁻¹ | kon [10]: 26200 M⁻¹ s⁻¹ | IC50 [11]: 45 nM | Kd [12]: 32.6 nM | koff [12]: 0.000905 s⁻¹ | kon [12]: 27800 M⁻¹ s⁻¹

B2: VH1.2-6GS-VH1.2-6GS-VH2.92-His6 (bispecific antibody)
chain: EVQLVESGGGVVRPGGSLRLSCAASGFTFDDYGMSWVRQAPGKGLEWVSGIHWNGGSTGYADSVKGRFTISRDNAKNSLYLQMNSLRAEDTALYYCARIPREDCSSASCYTDAIDFWGQGTMVTVSSGGGGSGGGGSGGGGSGGGGSGGGGSGGGGSEVQLVESGGGVVRPGGSLRLSCAASGFTFDDYGMSWVRQAPGKGLEWVSGIHWNGGSTGYADSVKGRFTISRDNAKNSLYLQMNSLRAEDTALYYCARIPREDCSSASCYTDAIDFWGQGTMVTVSSGGGGSGGGGSGGGGSGGGGSGGGGSGGGGSEVQLVESGGGLVKPGGSLRLSCAASGFTFSDESMTWMRQAPGKGLEWVSYISSGGGVKFYADSVKGRFTISRDNAKNSLYLQMNSLRAEDTAVYYCAREAPLRLGESPHDAFDISGQGTMVTVSSAAAHHHHHH
notes: 259 is the same construct without the tag; also called 1.2-6GS-1.2-6GS-2.92; the bispecific
Kd [13]: 1.4 nM | koff [13]: 0.000674 s⁻¹ | kon [13]: 483000 M⁻¹ s⁻¹ | EC50 (M), NFAT-Luciferase Reporter Gene assay (PD-1:PD-L1) [14]: 4.6e-08 M | EC50 (M), NFAT-Luciferase Reporter Gene assay (LAG-3:MHCII) [1]: 5.9e-09 M | Kd [15]: 4.4 nM | koff [15]: 0.000488 s⁻¹ | kon [15]: 110000 M⁻¹ s⁻¹ | Kd [16]: 0.0207 nM | Kd [17]: 1.32 nM | koff [17]: 0.000184 s⁻¹ | kon [17]: 140000 M⁻¹ s⁻¹ | Kd [18]: 1.42 nM | koff [18]: 0.000206 s⁻¹ | kon [18]: 145000 M⁻¹ s⁻¹ | koff [19]: 7.51e-05 s⁻¹ | kon [19]: 3.62e+06 M⁻¹ s⁻¹ | binding result (CD28): no binding | binding result (CD4 [20]): no binding | binding result (CTLA4): no binding | potency in the PD-1:PD-L1 NFAT-luciferase reporter assay, fold lower than monoclonal antibodies [21]: > 30 fold | EC50 (M) (n = 2), enzyme fragment complementation on LAG-3/PD-1 cells [22]: 5.5e-11 M and 7.6e-11 M | Kd [23]: 0.041 nM | koff [23]: 8.67e-05 s⁻¹ | kon [23]: 2.12e+06 M⁻¹ s⁻¹ | Kd [24]: 2.94 nM | koff [24]: 0.000665 s⁻¹ | kon [24]: 226000 M⁻¹ s⁻¹ | Kd (Cynomolgus PD1): 4.36 nM | koff (Cynomolgus PD1): 0.000685 s⁻¹ | kon (Cynomolgus PD1): 157000 M⁻¹ s⁻¹
